B1: ChlD S554R (natural protein)
chain: not shown
notes: Magnesium chelatase subunit ChlD, Synechocystis sp; PCC 6803, MIDAS motif point mutant; also called type II MIDAS mutant; source: E. coli, purified as wild type
B2: ChlD wild type (purified recombinant, Synechocystis) (natural protein)
chain: not shown
modifications: labelled with NHS-NT647 dye where it was the labelled partner in MST (ChlD-ChlD titration)
notes: Magnesium chelatase subunit ChlD (~75 kDa), Synechocystis sp; PCC 6803; also called WT ChlD
B3: ChlD S489A (natural protein)
chain: not shown
notes: Magnesium chelatase subunit ChlD, Synechocystis sp; PCC 6803, MIDAS motif point mutant; also called MIDAS mutant; source: E. coli, purified as wild type
B4: ChlD QuinE (E510Q/E513Q/E600T/E603P/E605T) (natural protein)
chain: not shown
notes: Magnesium chelatase subunit ChlD, Synechocystis sp; also called quintuplet mutant of ChlD; source: E. coli, purified (as described previously)
B5: ChlD D487E (natural protein)
chain: not shown
notes: as for B3
B6: ChlD S491A (natural protein)
chain: not shown
notes: as for B3
B7: ChlD truncation A (AAA+ domain alone) (domain or fragment)
chain: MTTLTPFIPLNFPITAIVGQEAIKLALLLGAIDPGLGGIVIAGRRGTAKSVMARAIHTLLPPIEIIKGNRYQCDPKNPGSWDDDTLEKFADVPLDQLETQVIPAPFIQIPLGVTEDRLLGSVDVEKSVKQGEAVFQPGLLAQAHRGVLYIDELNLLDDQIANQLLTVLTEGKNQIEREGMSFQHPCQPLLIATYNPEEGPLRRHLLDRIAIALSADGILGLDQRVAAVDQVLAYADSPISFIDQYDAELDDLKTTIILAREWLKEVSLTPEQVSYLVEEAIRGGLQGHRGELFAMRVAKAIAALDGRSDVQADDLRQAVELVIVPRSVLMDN
B8: ChlD truncation B (AAA+ domain with the polyproline region) (domain or fragment)
chain: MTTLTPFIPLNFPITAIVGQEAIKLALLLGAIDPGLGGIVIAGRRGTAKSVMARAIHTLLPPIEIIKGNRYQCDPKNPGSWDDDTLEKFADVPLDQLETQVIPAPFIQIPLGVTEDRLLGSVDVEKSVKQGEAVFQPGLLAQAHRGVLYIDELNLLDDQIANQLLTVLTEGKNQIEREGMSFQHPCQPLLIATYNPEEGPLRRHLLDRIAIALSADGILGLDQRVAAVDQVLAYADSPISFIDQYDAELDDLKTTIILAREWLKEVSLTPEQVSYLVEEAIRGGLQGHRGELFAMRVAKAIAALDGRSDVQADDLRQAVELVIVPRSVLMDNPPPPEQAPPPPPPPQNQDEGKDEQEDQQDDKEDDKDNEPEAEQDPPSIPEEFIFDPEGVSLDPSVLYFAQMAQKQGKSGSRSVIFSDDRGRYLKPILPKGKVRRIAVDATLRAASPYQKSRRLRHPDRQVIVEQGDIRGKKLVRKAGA

The first series has as its target T1, ChlH (purified recombinant, Synechocystis) (Synechocystis sp. PCC 6803, UniProt P73020 1-1331, labelled with NHS-NT647 dye in the MST experiments; activated with EDC/NHS in the cross-linking experiment).
T1 sequence (looked up): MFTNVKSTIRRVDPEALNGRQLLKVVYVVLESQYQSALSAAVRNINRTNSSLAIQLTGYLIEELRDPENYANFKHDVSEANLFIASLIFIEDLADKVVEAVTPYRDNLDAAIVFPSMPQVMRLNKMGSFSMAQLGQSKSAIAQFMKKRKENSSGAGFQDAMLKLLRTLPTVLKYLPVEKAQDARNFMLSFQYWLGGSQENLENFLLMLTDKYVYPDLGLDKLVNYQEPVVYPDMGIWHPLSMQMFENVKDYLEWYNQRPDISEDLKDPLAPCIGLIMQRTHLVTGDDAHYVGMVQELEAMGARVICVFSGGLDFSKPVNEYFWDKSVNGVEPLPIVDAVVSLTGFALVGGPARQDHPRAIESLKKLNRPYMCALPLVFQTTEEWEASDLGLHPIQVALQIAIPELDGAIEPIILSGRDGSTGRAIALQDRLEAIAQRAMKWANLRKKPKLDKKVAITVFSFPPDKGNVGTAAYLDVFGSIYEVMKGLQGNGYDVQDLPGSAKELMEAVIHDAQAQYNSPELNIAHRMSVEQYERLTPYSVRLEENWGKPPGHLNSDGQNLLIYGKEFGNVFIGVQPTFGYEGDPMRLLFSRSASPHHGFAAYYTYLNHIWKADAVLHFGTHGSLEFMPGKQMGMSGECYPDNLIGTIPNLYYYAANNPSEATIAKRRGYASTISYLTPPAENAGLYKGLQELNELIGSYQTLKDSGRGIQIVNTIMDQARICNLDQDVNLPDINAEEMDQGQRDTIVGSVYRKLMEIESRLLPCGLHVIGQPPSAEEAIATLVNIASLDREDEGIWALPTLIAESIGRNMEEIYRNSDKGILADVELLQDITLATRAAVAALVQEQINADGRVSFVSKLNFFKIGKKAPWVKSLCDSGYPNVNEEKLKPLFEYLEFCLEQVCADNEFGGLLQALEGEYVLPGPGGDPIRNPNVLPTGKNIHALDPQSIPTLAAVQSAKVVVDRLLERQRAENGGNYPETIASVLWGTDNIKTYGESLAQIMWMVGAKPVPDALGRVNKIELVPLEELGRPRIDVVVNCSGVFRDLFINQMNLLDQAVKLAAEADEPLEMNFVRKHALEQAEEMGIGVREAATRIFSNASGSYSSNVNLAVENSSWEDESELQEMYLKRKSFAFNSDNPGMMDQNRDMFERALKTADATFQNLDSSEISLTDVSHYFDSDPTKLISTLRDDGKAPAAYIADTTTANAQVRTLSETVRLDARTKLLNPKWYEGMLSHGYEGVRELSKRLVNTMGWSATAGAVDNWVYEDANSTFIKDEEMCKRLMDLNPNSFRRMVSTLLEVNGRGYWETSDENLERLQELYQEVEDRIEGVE
The experiment in a line: cell-based or functional assay.
Settings: not given
Turning to B1, the “magnesium chelatase activity, rate relative to the wild-type protein” value is roughly 5%.

The next series deals with the molecule itself. Briefly: MST; control ChlD-ChlD titration (Supplementary Figure S3); monomer to dimer.
Settings: not given
Broadly, the Kd is a measure of binding affinity in units of concentration. For orientation: stoichiometry N means the number of molecules, sites or subunits per partner or assembly. B2: the Kd is 296 nM and the “stoichiometry N” value is 2.

For a further series, the target named is T1, ChlH (purified recombinant, …). The experiment in a line: MST; ChlD (or variant) titrated into 20 nM NT647-labelled ChlH; 50 mM Tris/NaOH, 0.2% Pluronic F-127, pH 7.8, without Mg2+; single-site model; Kd is an empirical description over all oligomeric states of ChlD. The note with it: both partners purified.
Consider B2, for which the Kd came to 2100 nM.
For the molecule B3, the dissociation constant (Kd) amounted to 3210 nM.
Turning to B4, the dissociation constant Kd came to 512 nM.
As for B5, the Kd worked out at 1490 nM.
On to B1, for which the equilibrium dissociation constant (Kd) was 988 nM.
Same read-out and setting: with B6 the figure was 351 nM; with B7, 5930 nM; with B8, 6760 nM.

The target is the same in the next series. The experiment in a line: MST; ChlD (or variant) titrated into 20 nM NT647-labelled ChlH; 50 mM Tris/NaOH, 0.2% Pluronic F-127, pH 7.8, with 10 mM Mg2+; single-site model; Kd is an empirical description over all oligomeric states of ChlD. Particulars: both partners purified.
In the case of B2, the dissociation constant (Kd) is 331 nM.
With B3, the Kd was found to be 1980 nM.
The same measure, in the same setting: in the case of B4 it was 339 nM.
On the same count and under the same terms, with B5 the figure was 842 nM.
On the same count and under the same terms, in the case of B1 it was 481 nM; in that of B6, 147 nM; in that of B7, 14600 nM.
In the case of B8, the equilibrium dissociation constant (Kd) is 10500 nM.

Values taken from PMC6604950, “The ChlD subunit links the motor and porphyrin binding subunits of magnesium chelatase” (Biochemical Journal, 2019).
